Columns and labels:
[1] = In vivo uptake and tissue distribution of 125I-TGFα from TJ-TGFα formulation on wounded cheek pouch; design: species or system Golden Syrian hamsters; settings: for Distribution of 125I-TGFα in the Tissues: Skin: 25 cm^2 skin on back; for Distribution of 125I-TGFα in the Tissues: Blood / Distribution of 125I-TGFα in the Tissues: Cecum / Distribution of 125I-TGFα in the Tissues: Colon / Distribution of 125I-TGFα in the Tissues: Esophagus / Distribution of 125I-TGFα in the Tissues: Kidney / Distribution of 125I-TGFα in the Tissues: Liver / Distribution of 125I-TGFα in the Tissues: Small Intestine / Distribution of 125I-TGFα in the Tissues: Stomach / Distribution of 125I-TGFα in the Tissues: Submaxillary Gland / Distribution of 125I-TGFα in the Tissues: Thyroid / Distribution of 125I-TGFα in the Tissues: Tongue: cheek pouch wound; for Distribution of 125I-TGFα in the Tissues: Cheek Pouch: right-hand side cheek pouch (application site)
Source text: (§1) The TGFα-containing ointment composition of Example 2 (TJ-TGFα formulation) was subjected, both in vitro and in vivo, to evaluation to meet the therapeutical requirements for oral mucositis. The in vitro evaluation included TGFα release and extraction from the composition, autoclave sterilizability and the bioactivity and stability of TGFα in the composition. The in vivo evaluation included TGFα uptake and tissue distribution of absorbed TGFα from hamster's cheek pouch.
(§2) B. The in vivo uptake of TGFα from the TJ-TGFα formulation was determined in Golden Syrian hamsters, female, approximately 150 g using an ^125 I-TGFα formulation (specific activity-45 μci/μg), the hamster's cheek pouch having a mechanically created wound. A pharmacokinetic study of tissue distribution of TGFα absorbed by the hamsters was also conducted. The methods employed were as follows:
(§3) 1. Fast hamsters overnight.
(§4) 2. Anesthetize hamsters by I.M. injection of ketamine HCl.
(§5) 3. Create a 2 mm diameter wound on the right-hand side of hamster's cheek pouch by a biopsy punch.
(§6) 4. Following the removal of the debridement and blood clot, administer 20 μl TJ-TGFα formulation containing 26 μci 125I-TGFα onto the wound area by a Gilson Microman.
(§7) 5. Keep the hamsters in their cages and give no water or food during the course of 6 hours study.
(§8) 6. Select three hamsters at time 15 minutes, 30 minutes, 1 hour, 2 hours, 4 hours and 6 hours and select one hamster at 24 hours for TGFα uptake and tissue distribution study.
7. Punch a needle into the hamster's heart and withdrawn 1 ml blood by a 5 ml syringe.
(§9) 8. Sacrifice hamster by inhalation of an overdose of carbon dioxide vapor from dry ice in a closed chamber.
(§10) 9. Immediately after sacrificing, remove the liver, kidney, thyroid, submaxillary gland, esophagus, stomach, small intestine, cecum, colon, 25 cm^2 skin on back, tongue and right-hand side of cheek pouch.
(§11) 11. Count the CPM of ^125 I-TGFα that distributed in the hamster's tissue and GI contents.

[2] = In vivo distribution of 125I-TGFα in the GI contents from TJ-TGFα formulation on wounded cheek pouch; design: species or system Golden Syrian hamsters; settings: cheek pouch wound
Source text: as §1, §2, §3, §4, §5, §6, §7, §8, §9, §10
10. Flush the contents of esophagus, stomach, small intestine and cecum with water and collect the contents separately into a test tube.
as §11

## ^125 I-TGFα: 125I-labelled TGFα (specific activity 45 μci/μg) administered in TJ-TGFα formulation onto the hamster cheek pouch wound
[1]; 15 min.
  Distribution of 125I-TGFα in the Tissues: Skin: 0.04%
  Distribution of 125I-TGFα in the Tissues: Blood: 0.01%
  Distribution of 125I-TGFα in the Tissues: Cecum: 0.303%
  Distribution of 125I-TGFα in the Tissues: Colon: 0.01%
  Distribution of 125I-TGFα in the Tissues: Esophagus: 0.001%
  Distribution of 125I-TGFα in the Tissues: Kidney: 0.02%
  Distribution of 125I-TGFα in the Tissues: Liver: 0.03%
  Distribution of 125I-TGFα in the Tissues: Small Intestine: 0.01%
  Distribution of 125I-TGFα in the Tissues: Stomach: 0.01%
  Distribution of 125I-TGFα in the Tissues: Submaxillary Gland: 0.02%
  Distribution of 125I-TGFα in the Tissues: Thyroid: 0.005%
  Distribution of 125I-TGFα in the Tissues: Tongue: 0.85%
  Distribution of 125I-TGFα in the Tissues: Cheek Pouch: 76%
[1]; 0.5 hrs.
  Distribution of 125I-TGFα in the Tissues: Skin: 0.06%
  Distribution of 125I-TGFα in the Tissues: Blood: 0.02%
  Distribution of 125I-TGFα in the Tissues: Cecum: 0.01%
  Distribution of 125I-TGFα in the Tissues: Colon: 0.02%
  Distribution of 125I-TGFα in the Tissues: Esophagus: 0.01%
  Distribution of 125I-TGFα in the Tissues: Kidney: 0.07%
  Distribution of 125I-TGFα in the Tissues: Liver: 0.07%
  Distribution of 125I-TGFα in the Tissues: Small Intestine: 0.05%
  Distribution of 125I-TGFα in the Tissues: Stomach: 0.03%
  Distribution of 125I-TGFα in the Tissues: Submaxillary Gland: 0.05%
  Distribution of 125I-TGFα in the Tissues: Thyroid: 0.02%
  Distribution of 125I-TGFα in the Tissues: Tongue: 3.13%
  Distribution of 125I-TGFα in the Tissues: Cheek Pouch: 30%
[1]; 1 hr.
  Distribution of 125I-TGFα in the Tissues: Skin: 0.03%
  Distribution of 125I-TGFα in the Tissues: Blood: 0.04%
  Distribution of 125I-TGFα in the Tissues: Cecum: 0.02%
  Distribution of 125I-TGFα in the Tissues: Colon: 0.04%
  Distribution of 125I-TGFα in the Tissues: Esophagus: 0.01%
  Distribution of 125I-TGFα in the Tissues: Kidney: 0.07%
  Distribution of 125I-TGFα in the Tissues: Liver: 0.09%
  Distribution of 125I-TGFα in the Tissues: Small Intestine: 0.04%
  Distribution of 125I-TGFα in the Tissues: Stomach: 0.05%
  Distribution of 125I-TGFα in the Tissues: Submaxillary Gland: 0.04%
  Distribution of 125I-TGFα in the Tissues: Thyroid: 0.02%
  Distribution of 125I-TGFα in the Tissues: Tongue: 4.82%
  Distribution of 125I-TGFα in the Tissues: Cheek Pouch: 70%
[1]; 2 hrs.
  Distribution of 125I-TGFα in the Tissues: Skin: 0.10%
  Distribution of 125I-TGFα in the Tissues: Blood: 0.05%
  Distribution of 125I-TGFα in the Tissues: Cecum: 0.06%
  Distribution of 125I-TGFα in the Tissues: Colon: 0.06%
  Distribution of 125I-TGFα in the Tissues: Esophagus: 0.01%
  Distribution of 125I-TGFα in the Tissues: Kidney: 0.14%
  Distribution of 125I-TGFα in the Tissues: Liver: 0.17%
  Distribution of 125I-TGFα in the Tissues: Small Intestine: 0.07%
  Distribution of 125I-TGFα in the Tissues: Stomach: 0.10%
  Distribution of 125I-TGFα in the Tissues: Submaxillary Gland: 0.20%
  Distribution of 125I-TGFα in the Tissues: Thyroid: 0.14%
  Distribution of 125I-TGFα in the Tissues: Tongue: 3.57%
  Distribution of 125I-TGFα in the Tissues: Cheek Pouch: 74%
[1]; 4 hrs.
  Distribution of 125I-TGFα in the Tissues: Skin: 0.14%
  Distribution of 125I-TGFα in the Tissues: Blood: 0.13%
  Distribution of 125I-TGFα in the Tissues: Cecum: 0.04%
  Distribution of 125I-TGFα in the Tissues: Colon: 0.13%
  Distribution of 125I-TGFα in the Tissues: Esophagus: 0.26%
  Distribution of 125I-TGFα in the Tissues: Kidney: 0.23%
  Distribution of 125I-TGFα in the Tissues: Liver: 0.26%
  Distribution of 125I-TGFα in the Tissues: Small Intestine: 0.12%
  Distribution of 125I-TGFα in the Tissues: Stomach: 0.74%
  Distribution of 125I-TGFα in the Tissues: Submaxillary Gland: 0.42%
  Distribution of 125I-TGFα in the Tissues: Thyroid: 0.39%
  Distribution of 125I-TGFα in the Tissues: Tongue: 3.37%
  Distribution of 125I-TGFα in the Tissues: Cheek Pouch: 74%
[1]; 6 hrs.
  Distribution of 125I-TGFα in the Tissues: Skin: 0.13%
  Distribution of 125I-TGFα in the Tissues: Blood: 0.13%
  Distribution of 125I-TGFα in the Tissues: Cecum: 0.08%
  Distribution of 125I-TGFα in the Tissues: Colon: 0.12%
  Distribution of 125I-TGFα in the Tissues: Esophagus: 0.27%
  Distribution of 125I-TGFα in the Tissues: Kidney: 0.27%
  Distribution of 125I-TGFα in the Tissues: Liver: 0.24%
  Distribution of 125I-TGFα in the Tissues: Small Intestine: 0.15%
  Distribution of 125I-TGFα in the Tissues: Stomach: 1.06%
  Distribution of 125I-TGFα in the Tissues: Submaxillary Gland: 0.77%
  Distribution of 125I-TGFα in the Tissues: Thyroid: 0.88%
  Distribution of 125I-TGFα in the Tissues: Tongue: 1.25%
  Distribution of 125I-TGFα in the Tissues: Cheek Pouch: 84%
[1]; 24 hrs.
  Distribution of 125I-TGFα in the Tissues: Skin: 0.13%
  Distribution of 125I-TGFα in the Tissues: Blood: 0.22%
  Distribution of 125I-TGFα in the Tissues: Cecum: 0.05%
  Distribution of 125I-TGFα in the Tissues: Colon: 1.57%
  Distribution of 125I-TGFα in the Tissues: Esophagus: 0.04%
  Distribution of 125I-TGFα in the Tissues: Kidney: 0.24%
  Distribution of 125I-TGFα in the Tissues: Liver: 0.59%
  Distribution of 125I-TGFα in the Tissues: Small Intestine: 0.40%
  Distribution of 125I-TGFα in the Tissues: Stomach: 1.23%
  Distribution of 125I-TGFα in the Tissues: Submaxillary Gland: 0.77%
  Distribution of 125I-TGFα in the Tissues: Thyroid: 2.84%
  Distribution of 125I-TGFα in the Tissues: Tongue: 0.66%
  Distribution of 125I-TGFα in the Tissues: Cheek Pouch: 21%
[2]; 15 min.
  Distribution of 125I-TGFα in the GI Contents: Cecum: 0.003%
  Distribution of 125I-TGFα in the GI Contents: Esophagus: 0.00005%
  Distribution of 125I-TGFα in the GI Contents: Small Intestine: 0.003%
  Distribution of 125I-TGFα in the GI Contents: Stomach: 0.03%
[2]; 0.5 hrs.
  Distribution of 125I-TGFα in the GI Contents: Cecum: 0.01%
  Distribution of 125I-TGFα in the GI Contents: Esophagus: 0.01%
  Distribution of 125I-TGFα in the GI Contents: Small Intestine: 0.01%
  Distribution of 125I-TGFα in the GI Contents: Stomach: 0.056%
[2]; 1 hr.
  Distribution of 125I-TGFα in the GI Contents: Cecum: 0.02%
  Distribution of 125I-TGFα in the GI Contents: Esophagus: 0.002%
  Distribution of 125I-TGFα in the GI Contents: Small Intestine: 0.02%
  Distribution of 125I-TGFα in the GI Contents: Stomach: 0.20%
[2]; 2 hrs.
  Distribution of 125I-TGFα in the GI Contents: Cecum: 0.02%
  Distribution of 125I-TGFα in the GI Contents: Esophagus: 0.01%
  Distribution of 125I-TGFα in the GI Contents: Small Intestine: 0.02%
  Distribution of 125I-TGFα in the GI Contents: Stomach: 0.40%
[2]; 4 hrs.
  Distribution of 125I-TGFα in the GI Contents: Cecum: 0.04%
  Distribution of 125I-TGFα in the GI Contents: Esophagus: 0.37%
  Distribution of 125I-TGFα in the GI Contents: Small Intestine: 0.06%
  Distribution of 125I-TGFα in the GI Contents: Stomach: 4.1%
[2]; 6 hrs.
  Distribution of 125I-TGFα in the GI Contents: Cecum: 0.05%
  Distribution of 125I-TGFα in the GI Contents: Esophagus: 0.27%
  Distribution of 125I-TGFα in the GI Contents: Small Intestine: 0.05%
  Distribution of 125I-TGFα in the GI Contents: Stomach: 7.8%
[2]; 24 hrs.
  Distribution of 125I-TGFα in the GI Contents: Cecum: 2.63%
  Distribution of 125I-TGFα in the GI Contents: Esophagus: 0.01%
  Distribution of 125I-TGFα in the GI Contents: Small Intestine: 0.52%
  Distribution of 125I-TGFα in the GI Contents: Stomach: 5.5%

— patent publication US5578310A, “Topical bioadhesive ointment compositions and their use in wound healing” (Berlex Laboratories Inc., priority 1994, dated 1996)
